# From patent US20050058639A1 (AstraZeneca / MedImmune, published 2005)
# Positions count from the first letter of the chain named.
# T1: human GRO/MGSA (human, UniProt P09341 35-107)
# T1 construct: also called hGRO/MGSA; GRO-alpha
# T1 sequence (looked up): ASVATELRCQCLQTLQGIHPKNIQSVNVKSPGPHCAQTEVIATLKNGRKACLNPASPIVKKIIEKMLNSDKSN
# T2: recombinant human MCP-2 (human, UniProt P80075 24-99)
# T2 construct: also called rhMCP-2
# T2 sequence (looked up): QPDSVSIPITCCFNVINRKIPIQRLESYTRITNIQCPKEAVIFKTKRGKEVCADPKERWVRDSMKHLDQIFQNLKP
# T3: human MIP-1-alpha (human, UniProt P10147 24-92, limits assumed)
# T3 construct: also called hMIP-1-alpha
# T3 sequence (looked up): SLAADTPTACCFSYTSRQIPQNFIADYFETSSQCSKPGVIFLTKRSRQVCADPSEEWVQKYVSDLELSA
# T4: human RANTES (human, UniProt P13501 24-91)
# T4 construct: also called hRANTES
# T4 sequence (looked up): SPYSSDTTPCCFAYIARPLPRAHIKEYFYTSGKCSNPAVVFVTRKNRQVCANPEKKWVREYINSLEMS
# B1: anti-MCP-1 mAb 5.1 (antibody, V domains shown)
# VH: EQSGGGVVQPGRSLRLSCAASGFTFSSYGMHWVRQAPGKGLEWVAVIWYDGNNKYYADSVKGRFTISRDTSKNTLYLQMNSLRAEDTAVYYCARDSSSYYYYGMDVWGQGTTVTVSS
# VL: NFMLTQPHSVSESPGKTVTISCTRSSGSIASNYVQWFQQRPGSSPTTVIYEDDQRPSGVPDRFCGSIDSSSNSASLTISGLRTEDEADYYCQSYDSSNHVVFGGGTKLTVLG
# B2: anti-MCP-1 mAb 3.14.1 (antibody, V domains shown)
# VH: EQSGPGLVKPSQTLSLTCAISGDSVSSNSAAWNWIRQSPSRGLEWLGRTYYRSKWYSDHAVSVRSRITIYPDTSKNQFSLQLNSVTPEDTAVYYCARDRISGTYVGMDVWGQGTTVTVSS
# VL: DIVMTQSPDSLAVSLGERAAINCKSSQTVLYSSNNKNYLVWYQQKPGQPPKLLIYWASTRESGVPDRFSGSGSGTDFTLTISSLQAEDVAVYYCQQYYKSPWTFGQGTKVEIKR
# B3: anti-MCP-1 mAb 3.15.1 (antibody, human IgG4, kappa, V domains shown)
# VH: QVQLVQSGAEVKKPGASVQVSCKVSGDTLTELSMHWVRQAPGKGLEWMGGFDPEDGETIYARKFQGRVTMTEDTSTDTVYMELSSLRSEDTAVYFCATDSRGYSGYFDNWGQGTLVTVSS
# VL: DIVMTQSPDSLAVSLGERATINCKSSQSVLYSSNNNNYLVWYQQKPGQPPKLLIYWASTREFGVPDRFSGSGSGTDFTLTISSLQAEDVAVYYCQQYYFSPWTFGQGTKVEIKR
# B4: anti-MCP-1 mAb 3.16.1 (antibody, V domains shown)
# VH: QVQLVQSGAEVKKPGASVKVSCKVSGYTLTDLSMHWVRQAPGKGLEWMGGFDPEDGETIYAQKFQGRVTMTEDTSSDTAYMELSSLRSEDTAVYYCATHEFWSGYFDYWGQGTLVTVSS
# VL: DIVMTQSPDSLAVSLGERATINCKSSQSVLFSSNNKSYLTWYQQKPGQPPKLLIFWASIRESGVPDRISGSGSGTDLTLTISSLQAEDAAVYYCQQYYSSPWTFGQGTKVEIKR
# B5: anti-MCP-1 mAb 4.7.1 (antibody, V domains shown)
# VH: B4 VH with D31E, S76T, H99D, E100D
# VL: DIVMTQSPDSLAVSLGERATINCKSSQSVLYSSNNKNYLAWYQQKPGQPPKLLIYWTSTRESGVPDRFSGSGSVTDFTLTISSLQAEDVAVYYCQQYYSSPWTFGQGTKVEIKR
# B6: anti-MCP-1 mAb 4.5.1 (antibody, V domains shown)
# VH: B4 VH with D31E, S76T, H99D, E100D
# VL: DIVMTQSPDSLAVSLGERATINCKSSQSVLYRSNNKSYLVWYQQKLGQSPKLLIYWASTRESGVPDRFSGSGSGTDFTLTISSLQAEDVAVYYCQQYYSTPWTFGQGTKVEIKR
# B7: anti-MCP-1 mAb 4.6.1 (antibody, V domains shown)
# VH: B4 VH with D31E, S76T, H99D, E100D
# VL: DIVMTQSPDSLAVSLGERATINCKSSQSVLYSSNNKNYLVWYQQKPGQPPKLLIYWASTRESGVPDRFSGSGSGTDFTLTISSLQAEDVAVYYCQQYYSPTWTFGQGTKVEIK
# B8: anti-MCP-1 mAb 4.8.1 (antibody, V domains shown)
# VH: B4 VH with D31E, S76T, S88T, A97T, H99D, E100D
# VL: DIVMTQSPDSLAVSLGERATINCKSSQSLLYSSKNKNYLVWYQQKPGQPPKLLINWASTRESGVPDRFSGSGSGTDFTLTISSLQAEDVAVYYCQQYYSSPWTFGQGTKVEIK
# Molecular target: T1, human GRO/MGSA
# Test: ELISA, coated antigen
# Protocol: (§1) Determining cross-reactivity of anti-MCP-1 antibodies with other chemokines. ELISA plates (Fisher Cat. No. 12-565-136) were coated with 50 μl/well of MCP-1, MCP-2, MCP-3, MCP-4, RANTES, GRO-alpha, MIP-1 alpha, eotaxin, rat MCP-1 and mouse JE (2 μg/ml) in coating buffer (0.1 M carbonate buffer, pH 9.6, NaHCO₃ 8.4 g/L, then incubated at 4° C. overnight. After incubation, the plates were washed with washing buffer (0.05% Tween 20 in PBS) three times. 200 μL/well blocking buffer (0.5% BSA, 0.1% Tween 20, 0.01% Thimerosal in 1×PBS) were added and the plates incubated at room temperature for 1 hour. After incubation, the plates were washed with washing buffer three times. 50 μL/well of hybridoma supernatants, and positive and negative controls (positive control was anti-MCP-1 antibody purchased from R&D Sciences, and negative control was an antibody to Keyhole Limpet Hemocyanin produced at Abgenix) were added and the plates incubated at room temperature for 2 hours. After incubation, the plates were washed three times with washing buffer. […] After incubation, the plates were washed three times with washing buffer and 100 μL/well of TMB (BioFX Lab. Cat. #TMSK-0 100-01) was added and the plates allowed to develop for about 10 minutes.
row,Binder,ELISA OD
1,B1,0.044 OD450
2,B2,0.046 OD450
3,B3,0.044 OD450
4,B4,0.043 OD450
5,B5,0.046 OD450
6,B6,0.045 OD450
7,B7,0.046 OD450
8,B8,0.042 OD450

# Molecular target: T5, recombinant mouse JE/MCP-1 (mouse, UniProt P10148 24-148)
# T5 construct: also called rmJE/MCP-1
# T5 sequence (P10148 24-148 limits assumed): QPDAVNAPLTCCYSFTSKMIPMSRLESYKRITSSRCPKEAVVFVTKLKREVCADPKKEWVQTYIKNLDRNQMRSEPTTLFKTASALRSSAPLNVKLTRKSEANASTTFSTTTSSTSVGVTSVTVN
# Test: ELISA, coated antigen
# Protocol: as §1
row,Binder,ELISA OD
1,B1,0.044 OD450
2,B2,0.044 OD450
3,B3,0.041 OD450
4,B4,0.042 OD450
5,B5,0.042 OD450
6,B6,0.049 OD450
7,B7,0.049 OD450
8,B8,0.042 OD450

# Molecular target: T6, human monocyte chemo-attractant protein-1 (MCP-1) (human, UniProt P13500 24-99)
# T6 construct: 76-residue recombinant protein from E. coli, bought (PeproTech); also called hMCP-1(MCAF); human MCP-1
# T6 sequence (P13500 24-99): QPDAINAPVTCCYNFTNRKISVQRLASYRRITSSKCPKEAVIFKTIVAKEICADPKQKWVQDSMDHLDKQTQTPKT
# Test: ELISA, coated antigen
# Protocol: as §1
row,Binder,ELISA OD
1,B1,0.521 OD450
2,B2,0.549 OD450
3,B3,0.948 OD450
4,B4,0.633 OD450
5,B5,0.744 OD450
6,B6,0.957 OD450
7,B7,0.686 OD450
8,B8,1.14 OD450

# Molecular target: T7, recombinant human MCP-4 (human, UniProt Q99616 24-98, limits assumed)
# T7 construct: also called rhMCP-4
# T7 sequence (Q99616 24-98 limits assumed): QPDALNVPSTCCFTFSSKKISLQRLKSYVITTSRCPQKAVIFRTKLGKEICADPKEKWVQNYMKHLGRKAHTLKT
# Test: ELISA, coated antigen
# Protocol: as §1
row,Binder,ELISA OD
1,B1,0.043 OD450
2,B2,0.045 OD450
3,B3,0.051 OD450
4,B4,0.043 OD450
5,B5,0.044 OD450
6,B6,0.046 OD450
7,B7,0.047 OD450
8,B8,0.039 OD450

# Molecular target: rat MCP-1 (rat, UniProt P14844 24-148)
# Sequence (P14844 24-148 limits assumed): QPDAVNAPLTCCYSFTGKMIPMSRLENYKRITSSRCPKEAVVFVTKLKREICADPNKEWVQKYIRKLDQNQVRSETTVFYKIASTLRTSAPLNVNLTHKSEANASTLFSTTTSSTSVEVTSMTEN
# Test: ELISA, coated antigen
# Protocol: as §1
row,Binder,ELISA OD
1,B1,0.054 OD450
2,B2,0.046 OD450
3,B3,0.05 OD450
4,B4,0.046 OD450
5,B5,0.062 OD450
6,B6,0.055 OD450
7,B7,0.05 OD450
8,B8,0.091 OD450

# Molecular target: T8, human eotaxin (human, UniProt P51671 24-97)
# T8 construct: also called hEotaxin
# T8 sequence (P51671 24-97 limits assumed): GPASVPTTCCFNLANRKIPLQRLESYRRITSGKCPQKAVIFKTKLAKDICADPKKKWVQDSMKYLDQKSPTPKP
# Test: ELISA, coated antigen
# Protocol: as §1
row,Binder,ELISA OD
1,B1,0.042 OD450
2,B2,0.043 OD450
3,B3,0.045 OD450
4,B4,0.043 OD450
5,B5,0.042 OD450
6,B6,0.041 OD450
7,B7,0.049 OD450
8,B8,0.043 OD450

# Molecular target: T2, recombinant human MCP-2
# Test: ELISA, coated antigen
# Protocol: as §1
row,Binder,ELISA OD
1,B1,0.051 OD450
2,B2,0.045 OD450
3,B3,0.043 OD450
4,B4,0.049 OD450
5,B5,0.042 OD450
6,B6,0.042 OD450
7,B7,0.047 OD450
8,B8,0.041 OD450

# Molecular target: T3, human MIP-1-alpha
# Test: ELISA, coated antigen
# Protocol: as §1
row,Binder,ELISA OD
1,B1,0.043 OD450
2,B2,0.046 OD450
3,B3,0.045 OD450
4,B4,0.043 OD450
5,B5,0.046 OD450
6,B6,0.046 OD450
7,B7,0.055 OD450
8,B8,0.041 OD450

# Molecular target: T9, recombinant human MCP-3 (human, UniProt P80098 24-99)
# T9 construct: also called rhMCP-3
# T9 sequence (P80098 24-99 limits assumed): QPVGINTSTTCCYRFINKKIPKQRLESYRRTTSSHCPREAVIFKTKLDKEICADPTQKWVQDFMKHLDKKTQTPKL
# Test: ELISA, coated antigen
# Protocol: as §1
row,Binder,ELISA OD
1,B1,0.05 OD450
2,B2,0.05 OD450
3,B3,0.046 OD450
4,B4,0.043 OD450
5,B5,0.046 OD450
6,B6,0.046 OD450
7,B7,0.05 OD450
8,B8,0.043 OD450

# Molecular target: T4, human RANTES
# Test: ELISA, coated antigen
# Protocol: as §1
row,Binder,ELISA OD
1,B1,0.043 OD450
2,B2,0.045 OD450
3,B3,0.049 OD450
4,B4,0.042 OD450
5,B5,0.046 OD450
6,B6,0.049 OD450
7,B7,0.053 OD450
8,B8,0.044 OD450

# Molecular target: T6, human monocyte chemo-attractant …
# Test: cell-based or functional assay
Binder,IC50 Ca++ Flux,IC50 Chemotaxis
B1,3.5 µg/mL,1.3 µg/mL
B2,1.3 µg/mL,1.4 µg/mL
B3,0.12 µg/mL,0.89 µg/mL
B4,0.16 µg/mL,0.4 µg/mL
B5,0.39 µg/mL,0.45 µg/mL
B6,0.27 µg/mL,0.75 µg/mL
B7,0.31 µg/mL,0.4 µg/mL
B8,0.22 µg/mL,0.29 µg/mL

# Molecular target: T6, human monocyte chemo-attractant …
# Test: ELISA, hybridoma supernatant on coated MCP-1
# Protocol: Selection of candidate antibodies for ELISA. After 14 days of culture, hybridoma supernatants were screened for MCP-1-specific monoclonal antibodies. The ELISA plates (Fisher, Cat. No. 12-565-136) were coated with 50 μl/well of MCP-1 (2 μg/mL) in Coating Buffer (0.1 M Carbonate Buffer, pH 9.6, NaHCO₃8.4 g/L), then incubated at 4° C. overnight. After incubation, the plates were washed with Washing Buffer (0.05% Tween 20 in PBS) three times. 200 μl/well Blocking Buffer (0.5% BSA, 0.1% Tween 20, 0.01% Thimerosal in 1× PBS) were added and the plates incubated at room temperature for 1 hour. After incubation, the plates were washed with Washing Buffer three times. 50 μL/well of hybridoma supernatants, and positive and negative controls were added and the plates incubated at room temperature for 2 hours.
# The positive control used throughout was XMG2 MCP-1 Group 1, footpad N160-7 and the negative control was XMG2 KLH Group 1, footpad L627-6. After incubation, the plates were washed three times with Washing Buffer. […] In the secondary screen, three sets of samples (positives in first screening) were screened, one set for hIgG detection, one set for hKappa detection, and one set for hlambda detection. After incubation, the plates were washed three times with Washing Buffer. 100 μL/well of TMB (BioFX Lab. Cat. #TMSK-0100-01) were added and the plates allowed to develop for about 10 minutes (until negative control wells barely started to show color), then 50 μL/well stop solution (TMB Stop Solution (BioFX Lab. Cat. #STPR-0100-01) were added and the plates read on an ELISA plate reader at wavelength 450 nm. The OD readings from the positive wells are presented in Table 9.
row,Binder,ELISA OD-MCP-1
1,B1,4 OD450
2,B2,4 OD450
3,B3,4 OD450
4,B4,3.92 OD450
5,B5,3.84 OD450
6,B6,3.38 OD450
7,B7,3.51 OD450
8,B8,4 OD450
